Data: publication PMC12372851

Molecular target: 3Flag-Lef1 (zebrafish) (UniProt Q9W7C0)
Experiment: EMSA
Conditions: 100 mM Hepes pH 7.5, 100 mM NaCl, 50 mM KCl, 1 mM DTT, 1 mM EDTA, 5% glycerol, 30 min at 25 °C

Chain of UniProt Q9W7C0 (Q9W7C0 entry or part of it): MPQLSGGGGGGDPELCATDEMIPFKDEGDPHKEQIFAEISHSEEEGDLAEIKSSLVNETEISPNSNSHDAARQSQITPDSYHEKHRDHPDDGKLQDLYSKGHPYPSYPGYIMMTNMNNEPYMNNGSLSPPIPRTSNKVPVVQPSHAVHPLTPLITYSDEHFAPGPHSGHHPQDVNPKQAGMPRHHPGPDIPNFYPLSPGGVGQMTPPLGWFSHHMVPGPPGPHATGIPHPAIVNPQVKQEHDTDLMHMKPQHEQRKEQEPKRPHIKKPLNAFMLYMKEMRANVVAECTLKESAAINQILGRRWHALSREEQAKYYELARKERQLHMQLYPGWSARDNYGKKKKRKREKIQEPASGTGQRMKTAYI

With “CACCACTGATAAAAACTATTAAAGATCAGTCTGGGAGTCACTACTTTACTACTTGGTTTCATCAAAGTATTAAAAAAAGTGATGCGCTGCCTTCTTTAAATGCGTTCAC (double strand) [eya2 promoter WT EMSA probe]” the binding was “binds”.
